Assays:
[1] = target: T1, recombinant human His-tagged FcγRIIa (R&D Systems #1330-CD-050) (human, UniProt P12318 36-218, limits assumed); assay: AlphaScreen
T1 construct: Bought; also called CD32a; recombinant, soluble, human FcγRIIa
T1 sequence (looked up): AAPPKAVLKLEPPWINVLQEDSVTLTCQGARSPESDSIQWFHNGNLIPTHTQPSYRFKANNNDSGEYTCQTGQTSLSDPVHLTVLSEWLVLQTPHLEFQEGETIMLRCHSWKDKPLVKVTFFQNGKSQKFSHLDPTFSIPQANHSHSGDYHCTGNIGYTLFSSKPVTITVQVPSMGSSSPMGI
Experimental: FcγRIIa (CD32a) AlphaScreen—Nickel acceptor beads (Perkin Elmer #6760619C) were diluted 1:50 in assay buffer (PBS, pH 7.4, 4 mg/ml BSA, 0.01% Tween-20), and 27.5 μl were added to each well of a Nunc V-bottom polypropylene plate (VWR # 62409-108) (Powers G., Notebook 9006, pp. 169-175, 182-185). A 2.0 μg/ml solution of recombinant human His-tagged FcγRIIa (R&D Systems #1330-CD-050) was prepared in assay buffer and 27.5 μl added to each well of a separate Nunc V bottom polypropylene plate. Titrations of test Abs were prepared in the Nunc V bottom polypropylene plate starting at 30 μg/ml. A 2 μg/ml solution of biotinylated goat F(ab′)₂ anti-human IgG F(ab′)₂ (Jackson Immunoresearch #109-066-097) was prepared in assay buffer and 27.5 μl added to each well of another Nunc V bottom polypropylene plate. A 1:50 dilution of streptavidin donor beads (PerkinElmer # 6760002) was prepared in assay buffer and 27.5 μl added to each well of another Nunc V bottom polypropylene plate. A volume of 5 μl of each reagent was added to the corresponding quadrants of a low-volume, non-binding white 384-well plate (Corning # 3673) in the following order: acceptor beads, FcγRIIa, test Ab, biotinylated anti-human IgG F(ab′)₂, and streptavidin donor beads. The plates were incubated for 30 minutes with shaking and the O.D.s determined using an Envision plate reader.
FcγRIIb (CD32b) AlphaScreen—The assay was performed as described above for FcγRIIa except that FcγRIIa was replaced with FcγRIIb (R&D Systems #1875-CD-050).

[2] = target: FcγRIIIa on NK cells of human PBMC (human, UniProt P08637 17-254); assay: cell-based or functional assay
FcγRIIIa on NK cells of human PBMC, sequence (P08637 17-254): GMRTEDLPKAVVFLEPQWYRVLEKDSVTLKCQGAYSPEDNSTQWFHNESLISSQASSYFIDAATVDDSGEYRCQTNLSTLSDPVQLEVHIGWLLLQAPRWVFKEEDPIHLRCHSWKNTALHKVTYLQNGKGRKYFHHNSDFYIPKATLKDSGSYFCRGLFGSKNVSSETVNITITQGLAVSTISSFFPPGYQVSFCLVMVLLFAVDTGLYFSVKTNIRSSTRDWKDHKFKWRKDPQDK

B1: CNTO 860 A330I/I332E (antibody, human IgG1, kappa)
heavy: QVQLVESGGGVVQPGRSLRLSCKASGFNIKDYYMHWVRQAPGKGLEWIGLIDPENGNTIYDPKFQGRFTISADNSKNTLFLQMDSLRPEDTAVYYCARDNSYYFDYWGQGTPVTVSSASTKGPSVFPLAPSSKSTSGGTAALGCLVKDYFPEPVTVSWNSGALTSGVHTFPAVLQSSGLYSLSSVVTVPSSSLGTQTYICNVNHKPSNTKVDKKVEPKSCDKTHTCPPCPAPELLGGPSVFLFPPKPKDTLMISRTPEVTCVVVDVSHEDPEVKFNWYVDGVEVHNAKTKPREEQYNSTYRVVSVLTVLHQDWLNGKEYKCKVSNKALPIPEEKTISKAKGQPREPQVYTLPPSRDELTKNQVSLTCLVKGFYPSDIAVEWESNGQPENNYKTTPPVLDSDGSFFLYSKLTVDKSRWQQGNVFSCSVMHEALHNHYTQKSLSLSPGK
light: DIQMTQSPSSLSASVGDRVTITCKASQDIRKYLNWYQQKPGKAPKLLIYYATSLADGVPSRFSGSGSGTDYTFTISSLQPEDIATYYCLQHGESPYTFGQGTKLEITRTVAAPSVFIFPPSDEQLKSGTASVVCLLNNFYPREAKVQWKVDNALQSGNSQESVTEQDSKDSTYSLSSTLTLSKADYEKHKVYACEVTHQGLSSPVTKSFNRGEC
modifications: N-linked glycan at Asn297 of the heavy chain (fucose content depends on host cell, CHO or YB2/0); not carried by the letters
notes: also called A330I/I332E double mutant; A330I/I332E variant; copies: 2 + 2
[1]
  fold higher concentration than WT to give an OD signal of 200,000: ~20 fold
[2]
  fold activity in the ADCC assays: ~10 fold

Source: US20080311034A1 (published 2008)
